The experiment deals with soluble form of hepsin encompassing the entire extracellular domain (Arg45-Leu417) and a C-terminal His8 tag (human) (UniProt P05981). In words: cell-based or functional assay.

Positions count from the first letter of the chain named. Names may count otherwise.

soluble form of hepsin encompassing the entire extracellular domain (Arg45-Leu417) and a C-terminal His8 tag (human), sequence (P05981 45-162 limits assumed, chain 1 of 2): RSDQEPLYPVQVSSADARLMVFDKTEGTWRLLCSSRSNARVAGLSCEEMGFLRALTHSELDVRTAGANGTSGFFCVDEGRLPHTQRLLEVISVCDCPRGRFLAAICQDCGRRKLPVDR
soluble form of hepsin encompassing the entire extracellular domain (Arg45-Leu417) and a C-terminal His8 tag (human), sequence (P05981 other isoform, or with tags, fused parts or gaps limits assumed, chain 2 of 2): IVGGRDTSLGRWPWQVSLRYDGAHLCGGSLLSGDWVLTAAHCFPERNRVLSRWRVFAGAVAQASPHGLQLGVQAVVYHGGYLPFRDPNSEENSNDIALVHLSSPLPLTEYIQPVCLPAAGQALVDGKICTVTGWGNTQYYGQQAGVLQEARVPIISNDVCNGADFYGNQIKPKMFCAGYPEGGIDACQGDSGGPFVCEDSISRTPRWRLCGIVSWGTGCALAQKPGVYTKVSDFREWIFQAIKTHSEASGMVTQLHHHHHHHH

B1: soluble form of HAI-2 (sHAI-2), extracellular domain Ala28-Lys197 with a C-terminal His8 tag with a Gly spacer (protein, human, not shown: small tags and cut ends)
chain: ADRERSIHDFCLVSKVVGRCRASMPRWWYNVTDGSCQLFVYGGCDGNSNNYLTKEECLKKCATVTENATGDLATSRNAADSSVPSAPRRQDSEDHSSDMFNYEEYCTANAVTGPCRASFPRWYFDVERNSCNNFIYGGCRGNKNSYRSEEACMLRCFRQQENPPLPLGSKHHHHHHHH
B1 gave an IC50, inhibition of hepsin enzymatic activity towards S2366 (amidolytic assay) of 1.3 nM.

B2: sHAI-1B(K401A) (protein, UniProt O43278 36-465, looked up)
chain: GPPPAPPGLPAGADCLNSFTAGVPGFVLDTNASVSNGATFLESPTVRRGWDCVRACCTTQNCNLALVELQPDRGEDAIAACFLINCLYEQNFVCKFAPREGFINYLTREVYRSYRQLRTQGFGGSGIPKAWAGIDLKVQPQEPLVLKDVENTDWRLLRGDTDVRVERKDPNQVELWGLKEGTYLFQLTVTSSDHPEDTANVTVTVLSTKQTEDYCLASNKVGRCRGSFPRWYYDPTEQICKSFVYGGCLGNKNNYLREEECILACRGVQGGPLRGSSGAQATFPQGPSMERRHPVCSGTCQPTQFRCSNGCCIDSFLECDDTPNCPDASDEAACEKYTSGFDELQRIHFPSDKGHCVDLPDTGLCAESIPRWYYNPFSEHCARFTYGGCYGNKNNFEEEQQCLESCRGISKKDVFGLRREIPIPSTGSVE
On to B2, for which the IC50, inhibition of hepsin enzymatic activity towards S2366 (amidolytic assay) is 18.2 nM.

B3: sHAI-1B(R260A) (protein, UniProt O43278 36-465, looked up)
chain: B2 chain with R225A, A366K
Consider B3, for which the IC50, inhibition of hepsin enzymatic activity towards S2366 (amidolytic assay) was more than 1000 nM; the activity in amidolytic assays as percent of wildtype and KD2 mutant was less than 1%; the fold reduction of inhibitory activity against wildtype sHAI-1B (amidolytic assay) was more than 47 fold.

The record behind these values is patent publication US20100209956A1.
